The values that follow come from patent EP4541444A1.

Positions count from the first letter of the chain named.

One test concerns the target trastuzumab-GFP. The test can be described thus: SPR (Biacore), fusion on CM5 chip, 2 µM Fc block, then trastuzumab-eGFP 1 µM. (Surface plasmon resonance follows binding to a sensor surface in real time, without labels.)
Test [1] concerns the target epidermal growth factor receptor (Example 4A) (UniProt P00533). Kind of test: SPR (Biacore), fusion on CM5 chip, EGFR 200 nM.
For test [2], the target named is EGFR (SinoBiological, 10001-H08H) (UniProt P00533). The test can be described thus: SPR (Biacore), fusion on CM5 chip, EGFR 200 nM.
For test [3], the target named is AAV9 viral particles (adeno-associated virus serotype 9). Kind of test: SPR (Biacore), ligand amine coupled to CM5 chip, AAV9 2E12 vp/ml.
Test [4] shares this target. Kind of test: SPR (Biacore), biotinylated ligand on SA chip, AAV9 2E12 vp/ml.

B1: 4B-5 (VHH)
VHH: QVQLQESGGGLVQPGGSLRLSCAASGRTSINPYMAWFRQAPGKQREFVAAISSGGVYTYYTDSVKGRFTISRDNAKTTVYLQMNSLKPEDTAVYYCAADFRRGGNWNVDPFRYDYQYWGQGTQVTVSS
As for B1, the Binding capacity trastuzumab-eGFP (1 µM) with trastuzumab-GFP was 4300 RU.

B2: 4B-6 (VHH)
VHH: B1 VHH with E6Q, L11S, P14A, A23T, A24I, A40R, Q44E, T61A, T77N, Q116D
On to B2, for which the Binding capacity trastuzumab-eGFP (1 µM) with trastuzumab-GFP came to 3910 RU.

B3: 4A-5 (VHH)
VHH: QVQLQQSGGGSVQAGGSLRLSCTISGRTFSSYAMGWFRQRPGKEREFVAAINWSSGSTYYADSVKGRFTISRDNAKNTVYLQMNSLKPEDTAVYYCAAGYQINSGNYNFKDYEYDYWGQGTQVTVSS
B3: the Binding capacity EGFR (200 nM) in test [1] was 2350 RU.

B4: 4B-4 (VHH)
VHH: B3 VHH
For B4, in test [2], the Binding capacity EGFR (200 nM) worked out at 1900 RU.

B5: 2A-1 (VHH)
VHH: QVQLQQSGGGSVQAGGSLRLSCTISGRTLSDYTMGWFRQRPGKEREFVAAISWSGAYTKYADSVKGRFTISRDNAKNTVYLQMNSLKPEDTAVYYCAAGPTGLLSKKATPADYDYWGQGTQVTVSS
For B5, the AAV9 capacity (2E12 vp/ml) in test [3] turned out to be 11300 RU.

B6: 2B-1 (VHH)
chain: QVQLQQSGGGSVQAGGSLRLSCTISGRTLSDYTMGWFRQRPGKEREFVAAISWSGAYTKYADSVKGRFTISRDNAKNTVYLQMNSLKPEDTAVYYCAAGPTGLLSKKATPADYDYWGQGTQVTVSSQASAEAAAKEAAAKAGQVQLQQSGGGSVQAGGSLRLSCTISGRTLSDYTMGWFRQRPGKEREFVAAISWSGAYTKYADSVKGRFTISRDNAKNTVYLQMNSLKPEDTAVYYCAAGPTGLLSKKATPADYDYWGQGTQVTVSSQASAEAAAKEAAAKAGQVQLQQSGGGSVQAGGSLRLSCTISGRTLSDYTMGWFRQRPGKEREFVAAISWSGAYTKYADSVKGRFTISRDNAKNTVYLQMNSLKPEDTAVYYCAAGPTGLLSKKATPADYDYWGQGTQVTVSSQASHHHHHHC
Take B6: in test [4], the AAV9 capacity (2E12 vp/ml) turned out to be 13400 RU.
